The results in this text go back to the supplement of paper PMC11908140.

B1: library; numbered along this chain (parent)
chain: MRKPRAAVGSGHRKQAASQEGRQKHAKNNSQAKPSACDGLARQPEEVVLQASVSSYHLFRDVAEVTAFRGSLLSWYDQEKRDLPWRRRAEDEMDLDRRAYAVWVSEVMLQQTQVATVINYYTGWMQKWPTLQDLASASLEEVNQLWAGLGYYSRGRRLQEGARKVVEELGGHMPRTAETLQQLLPGVGRYTAGAIASIAFGQATGVVDGNVARVLCRVRAIGADPSSTLVSQQLWGLAQQLVDPARPGDFNQAAMELGATVCTPQRPLCSQCPVESLCRARQRVEQEQLLASGSLSGSPDVEECAPNTGQCHLCLPPSEPWDQTLGVVNFPRKASRKPPREESSATCVLEQPGALGAQILLVQRPNSGLLAGLWEFPSVTWEPSEQLQRKALLQELQRWAGPLPATHLRHLGEVVHTFSHIKLTYQVYGLALEGQTPVTTVPPGARWLTQEEFHTAAVSTAMKKVFRVYQGQQPGTCMGSKRSQVSSPCSRKKPRMGQQVLDNFFRSHISTDAHSLNSAAQ

In this data set the parent is B1. The data set is described as follows: 8OG:A repair function score (normalized; synonymous = 0, nonsense = -1) (normalized log-likelihood score); higher = more repair activity (WT-like). Conditions: with 8OG:A DNA repair reporter (GFP) in HEK-293 MUTYH KO cells. The method, then:
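Saturation mutagenesis (NNN codon scan) of the MUTYH cDNA (521-aa nuclear isoform NM_001048174.1 / NP_001041639), stably expressed under doxycycline induction in HEK-293 MUTYH knockout cells. Cells were co-transfected with an 8OG:A-bearing GFP repair reporter plus mCherry and sorted 72 h later into GFP+ and GFP− bins, three replicates per tile. The Rosace log2 enrichment (GFP+ vs GFP−) was converted per tile to a normalized function score with synonymous variants centered at 0 and nonsense variants (codons 1-471) at -1; low-abundance variants were removed.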
On to MRKPRAAVGSGHRKQAASQEGRQKHAKNNSQAKPSACDGLARQPEEVVLQASVSSYHLFRDVAEVTAFRGSLLSWYDQEKRDLPWRRRAEDEMDLDRRAYAVWVSEVMLQQTQVATVQNYYTGWMQKWPTLQDLASASLEEVNQLWAGLGYYSRGRRLQEGARKVVEELGGHMPRTAETLQQLLPGVGRYTAGAIASIAFGQATGVVDGNVARVLCRVRAIGADPSSTLVSQQLWGLAQQLVDPARPGDFNQAAMELGATVCTPQRPLCSQCPVESLCRARQRVEQEQLLASGSLSGSPDVEECAPNTGQCHLCLPPSEPWDQTLGVVNFPRKASRKPPREESSATCVLEQPGALGAQILLVQRPNSGLLAGLWEFPSVTWEPSEQLQRKALLQELQRWAGPLPATHLRHLGEVVHTFSHIKLTYQVYGLALEGQTPVTTVPPGARWLTQEEFHTAAVSTAMKKVFRVYQGQQPGTCMGSKRSQVSSPCSRKKPRMGQQVLDNFFRSHISTDAHSLNSAAQ [I118Q], for which the “8OG:A repair function score” value is -0.0947.

For MRKPRAAVGSGHRKQAASQEGRQKHAKNNSQAKPSACDGLARQPEEVVLQASVSSYHLFRDVAEVTAFRGSLLSWYDQEKRDLPWRRRAEDEMDLDRRAYAVWVSEVMLQQTQVATVWNYYTGWMQKWPTLQDLASASLEEVNQLWAGLGYYSRGRRLQEGARKVVEELGGHMPRTAETLQQLLPGVGRYTAGAIASIAFGQATGVVDGNVARVLCRVRAIGADPSSTLVSQQLWGLAQQLVDPARPGDFNQAAMELGATVCTPQRPLCSQCPVESLCRARQRVEQEQLLASGSLSGSPDVEECAPNTGQCHLCLPPSEPWDQTLGVVNFPRKASRKPPREESSATCVLEQPGALGAQILLVQRPNSGLLAGLWEFPSVTWEPSEQLQRKALLQELQRWAGPLPATHLRHLGEVVHTFSHIKLTYQVYGLALEGQTPVTTVPPGARWLTQEEFHTAAVSTAMKKVFRVYQGQQPGTCMGSKRSQVSSPCSRKKPRMGQQVLDNFFRSHISTDAHSLNSAAQ [I118W], the “8OG:A repair function score” value is -0.13. The same measure for MRKPRAAVGSGHRKQAASQEGRQKHAKNNSQAKPSACDGLARQPEEVVLQASVSSYHLFRDVAEVTAFRGSLLSWYDQEKRDLPWRRRAEDEMDLDRRAYAVWVSEVMLQQTQVATVRNYYTGWMQKWPTLQDLASASLEEVNQLWAGLGYYSRGRRLQEGARKVVEELGGHMPRTAETLQQLLPGVGRYTAGAIASIAFGQATGVVDGNVARVLCRVRAIGADPSSTLVSQQLWGLAQQLVDPARPGDFNQAAMELGATVCTPQRPLCSQCPVESLCRARQRVEQEQLLASGSLSGSPDVEECAPNTGQCHLCLPPSEPWDQTLGVVNFPRKASRKPPREESSATCVLEQPGALGAQILLVQRPNSGLLAGLWEFPSVTWEPSEQLQRKALLQELQRWAGPLPATHLRHLGEVVHTFSHIKLTYQVYGLALEGQTPVTTVPPGARWLTQEEFHTAAVSTAMKKVFRVYQGQQPGTCMGSKRSQVSSPCSRKKPRMGQQVLDNFFRSHISTDAHSLNSAAQ [I118R]: 0.0138; for MRKPRAAVGSGHRKQAASQEGRQKHAKNNSQAKPSACDGLARQPEEVVLQASVSSYHLFRDVAEVTAFRGSLLSWYDQEKRDLPWRRRAEDEMDLDRRAYAVWVSEVMLQQTQVATVLNYYTGWMQKWPTLQDLASASLEEVNQLWAGLGYYSRGRRLQEGARKVVEELGGHMPRTAETLQQLLPGVGRYTAGAIASIAFGQATGVVDGNVARVLCRVRAIGADPSSTLVSQQLWGLAQQLVDPARPGDFNQAAMELGATVCTPQRPLCSQCPVESLCRARQRVEQEQLLASGSLSGSPDVEECAPNTGQCHLCLPPSEPWDQTLGVVNFPRKASRKPPREESSATCVLEQPGALGAQILLVQRPNSGLLAGLWEFPSVTWEPSEQLQRKALLQELQRWAGPLPATHLRHLGEVVHTFSHIKLTYQVYGLALEGQTPVTTVPPGARWLTQEEFHTAAVSTAMKKVFRVYQGQQPGTCMGSKRSQVSSPCSRKKPRMGQQVLDNFFRSHISTDAHSLNSAAQ [I118L]: -0.0284; for MRKPRAAVGSGHRKQAASQEGRQKHAKNNSQAKPSACDGLARQPEEVVLQASVSSYHLFRDVAEVTAFRGSLLSWYDQEKRDLPWRRRAEDEMDLDRRAYAVWVSEVMLQQTQVATVTNYYTGWMQKWPTLQDLASASLEEVNQLWAGLGYYSRGRRLQEGARKVVEELGGHMPRTAETLQQLLPGVGRYTAGAIASIAFGQATGVVDGNVARVLCRVRAIGADPSSTLVSQQLWGLAQQLVDPARPGDFNQAAMELGATVCTPQRPLCSQCPVESLCRARQRVEQEQLLASGSLSGSPDVEECAPNTGQCHLCLPPSEPWDQTLGVVNFPRKASRKPPREESSATCVLEQPGALGAQILLVQRPNSGLLAGLWEFPSVTWEPSEQLQRKALLQELQRWAGPLPATHLRHLGEVVHTFSHIKLTYQVYGLALEGQTPVTTVPPGARWLTQEEFHTAAVSTAMKKVFRVYQGQQPGTCMGSKRSQVSSPCSRKKPRMGQQVLDNFFRSHISTDAHSLNSAAQ [I118T]: -0.0724. The same measure for MRKPRAAVGSGHRKQAASQEGRQKHAKNNSQAKPSACDGLARQPEEVVLQASVSSYHLFRDVAEVTAFRGSLLSWYDQEKRDLPWRRRAEDEMDLDRRAYAVWVSEVMLQQTQVATVSNYYTGWMQKWPTLQDLASASLEEVNQLWAGLGYYSRGRRLQEGARKVVEELGGHMPRTAETLQQLLPGVGRYTAGAIASIAFGQATGVVDGNVARVLCRVRAIGADPSSTLVSQQLWGLAQQLVDPARPGDFNQAAMELGATVCTPQRPLCSQCPVESLCRARQRVEQEQLLASGSLSGSPDVEECAPNTGQCHLCLPPSEPWDQTLGVVNFPRKASRKPPREESSATCVLEQPGALGAQILLVQRPNSGLLAGLWEFPSVTWEPSEQLQRKALLQELQRWAGPLPATHLRHLGEVVHTFSHIKLTYQVYGLALEGQTPVTTVPPGARWLTQEEFHTAAVSTAMKKVFRVYQGQQPGTCMGSKRSQVSSPCSRKKPRMGQQVLDNFFRSHISTDAHSLNSAAQ [I118S]: -0.0993. In the case of MRKPRAAVGSGHRKQAASQEGRQKHAKNNSQAKPSACDGLARQPEEVVLQASVSSYHLFRDVAEVTAFRGSLLSWYDQEKRDLPWRRRAEDEMDLDRRAYAVWVSEVMLQQTQVATVNNYYTGWMQKWPTLQDLASASLEEVNQLWAGLGYYSRGRRLQEGARKVVEELGGHMPRTAETLQQLLPGVGRYTAGAIASIAFGQATGVVDGNVARVLCRVRAIGADPSSTLVSQQLWGLAQQLVDPARPGDFNQAAMELGATVCTPQRPLCSQCPVESLCRARQRVEQEQLLASGSLSGSPDVEECAPNTGQCHLCLPPSEPWDQTLGVVNFPRKASRKPPREESSATCVLEQPGALGAQILLVQRPNSGLLAGLWEFPSVTWEPSEQLQRKALLQELQRWAGPLPATHLRHLGEVVHTFSHIKLTYQVYGLALEGQTPVTTVPPGARWLTQEEFHTAAVSTAMKKVFRVYQGQQPGTCMGSKRSQVSSPCSRKKPRMGQQVLDNFFRSHISTDAHSLNSAAQ [I118N], the “8OG:A repair function score” value was -0.0549. Under MRKPRAAVGSGHRKQAASQEGRQKHAKNNSQAKPSACDGLARQPEEVVLQASVSSYHLFRDVAEVTAFRGSLLSWYDQEKRDLPWRRRAEDEMDLDRRAYAVWVSEVMLQQTQVATVHNYYTGWMQKWPTLQDLASASLEEVNQLWAGLGYYSRGRRLQEGARKVVEELGGHMPRTAETLQQLLPGVGRYTAGAIASIAFGQATGVVDGNVARVLCRVRAIGADPSSTLVSQQLWGLAQQLVDPARPGDFNQAAMELGATVCTPQRPLCSQCPVESLCRARQRVEQEQLLASGSLSGSPDVEECAPNTGQCHLCLPPSEPWDQTLGVVNFPRKASRKPPREESSATCVLEQPGALGAQILLVQRPNSGLLAGLWEFPSVTWEPSEQLQRKALLQELQRWAGPLPATHLRHLGEVVHTFSHIKLTYQVYGLALEGQTPVTTVPPGARWLTQEEFHTAAVSTAMKKVFRVYQGQQPGTCMGSKRSQVSSPCSRKKPRMGQQVLDNFFRSHISTDAHSLNSAAQ [I118H] stands 0.000662. Under MRKPRAAVGSGHRKQAASQEGRQKHAKNNSQAKPSACDGLARQPEEVVLQASVSSYHLFRDVAEVTAFRGSLLSWYDQEKRDLPWRRRAEDEMDLDRRAYAVWVSEVMLQQTQVATVVNYYTGWMQKWPTLQDLASASLEEVNQLWAGLGYYSRGRRLQEGARKVVEELGGHMPRTAETLQQLLPGVGRYTAGAIASIAFGQATGVVDGNVARVLCRVRAIGADPSSTLVSQQLWGLAQQLVDPARPGDFNQAAMELGATVCTPQRPLCSQCPVESLCRARQRVEQEQLLASGSLSGSPDVEECAPNTGQCHLCLPPSEPWDQTLGVVNFPRKASRKPPREESSATCVLEQPGALGAQILLVQRPNSGLLAGLWEFPSVTWEPSEQLQRKALLQELQRWAGPLPATHLRHLGEVVHTFSHIKLTYQVYGLALEGQTPVTTVPPGARWLTQEEFHTAAVSTAMKKVFRVYQGQQPGTCMGSKRSQVSSPCSRKKPRMGQQVLDNFFRSHISTDAHSLNSAAQ [I118V] stands 0.00363; under MRKPRAAVGSGHRKQAASQEGRQKHAKNNSQAKPSACDGLARQPEEVVLQASVSSYHLFRDVAEVTAFRGSLLSWYDQEKRDLPWRRRAEDEMDLDRRAYAVWVSEVMLQQTQVATVKNYYTGWMQKWPTLQDLASASLEEVNQLWAGLGYYSRGRRLQEGARKVVEELGGHMPRTAETLQQLLPGVGRYTAGAIASIAFGQATGVVDGNVARVLCRVRAIGADPSSTLVSQQLWGLAQQLVDPARPGDFNQAAMELGATVCTPQRPLCSQCPVESLCRARQRVEQEQLLASGSLSGSPDVEECAPNTGQCHLCLPPSEPWDQTLGVVNFPRKASRKPPREESSATCVLEQPGALGAQILLVQRPNSGLLAGLWEFPSVTWEPSEQLQRKALLQELQRWAGPLPATHLRHLGEVVHTFSHIKLTYQVYGLALEGQTPVTTVPPGARWLTQEEFHTAAVSTAMKKVFRVYQGQQPGTCMGSKRSQVSSPCSRKKPRMGQQVLDNFFRSHISTDAHSLNSAAQ [I118K], -0.483. The same measure for MRKPRAAVGSGHRKQAASQEGRQKHAKNNSQAKPSACDGLARQPEEVVLQASVSSYHLFRDVAEVTAFRGSLLSWYDQEKRDLPWRRRAEDEMDLDRRAYAVWVSEVMLQQTQVATVMNYYTGWMQKWPTLQDLASASLEEVNQLWAGLGYYSRGRRLQEGARKVVEELGGHMPRTAETLQQLLPGVGRYTAGAIASIAFGQATGVVDGNVARVLCRVRAIGADPSSTLVSQQLWGLAQQLVDPARPGDFNQAAMELGATVCTPQRPLCSQCPVESLCRARQRVEQEQLLASGSLSGSPDVEECAPNTGQCHLCLPPSEPWDQTLGVVNFPRKASRKPPREESSATCVLEQPGALGAQILLVQRPNSGLLAGLWEFPSVTWEPSEQLQRKALLQELQRWAGPLPATHLRHLGEVVHTFSHIKLTYQVYGLALEGQTPVTTVPPGARWLTQEEFHTAAVSTAMKKVFRVYQGQQPGTCMGSKRSQVSSPCSRKKPRMGQQVLDNFFRSHISTDAHSLNSAAQ [I118M]: -0.277. For the variant MRKPRAAVGSGHRKQAASQEGRQKHAKNNSQAKPSACDGLARQPEEVVLQASVSSYHLFRDVAEVTAFRGSLLSWYDQEKRDLPWRRRAEDEMDLDRRAYAVWVSEVMLQQTQVATVPNYYTGWMQKWPTLQDLASASLEEVNQLWAGLGYYSRGRRLQEGARKVVEELGGHMPRTAETLQQLLPGVGRYTAGAIASIAFGQATGVVDGNVARVLCRVRAIGADPSSTLVSQQLWGLAQQLVDPARPGDFNQAAMELGATVCTPQRPLCSQCPVESLCRARQRVEQEQLLASGSLSGSPDVEECAPNTGQCHLCLPPSEPWDQTLGVVNFPRKASRKPPREESSATCVLEQPGALGAQILLVQRPNSGLLAGLWEFPSVTWEPSEQLQRKALLQELQRWAGPLPATHLRHLGEVVHTFSHIKLTYQVYGLALEGQTPVTTVPPGARWLTQEEFHTAAVSTAMKKVFRVYQGQQPGTCMGSKRSQVSSPCSRKKPRMGQQVLDNFFRSHISTDAHSLNSAAQ [I118P], the “8OG:A repair function score” value is -0.112.
